# Numbering of substitutions follows the chain as printed. In names and notes the source's numbering stands.
# T1: human TIGIT fused to a beta galactosidase portion, on YTS cells (YTS_hTIGIT/hGrb2) (human, UniProt Q495A1 22-244)
# T1 sequence (looked up): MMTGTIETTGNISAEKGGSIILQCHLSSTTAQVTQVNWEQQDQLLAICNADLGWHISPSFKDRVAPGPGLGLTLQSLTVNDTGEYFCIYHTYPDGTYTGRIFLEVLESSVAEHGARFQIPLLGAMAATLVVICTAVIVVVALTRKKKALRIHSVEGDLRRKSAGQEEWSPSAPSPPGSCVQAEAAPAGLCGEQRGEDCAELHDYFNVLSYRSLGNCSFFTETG
# T2: His-tagged recombinant Mouse TIGIT (mouse, UniProt P86176 29-148, limits assumed)
# T2 construct: coated antigen of the direct ELISA; not shown: His tag
# T2 sequence (looked up): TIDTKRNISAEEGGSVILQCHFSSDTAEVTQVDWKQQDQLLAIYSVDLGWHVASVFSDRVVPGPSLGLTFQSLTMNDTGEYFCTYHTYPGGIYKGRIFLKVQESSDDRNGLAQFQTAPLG
# T3: His-tagged recombinant Human TIGIT (human, UniProt Q495A1 22-141)
# T3 construct: coated antigen of the direct ELISA; not shown: His tag
# T3 sequence (looked up): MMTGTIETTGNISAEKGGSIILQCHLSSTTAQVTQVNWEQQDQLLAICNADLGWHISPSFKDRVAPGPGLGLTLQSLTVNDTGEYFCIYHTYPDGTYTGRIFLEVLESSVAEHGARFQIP
# T4: biotinylated human TIGIT (human, UniProt Q495A1 22-141, biotinylated (EZ-Link NHS-PEG4-biotin kit))
# T4 construct: extracellular domain; also called TIGIT-ECD
# T4 sequence (looked up): T3 sequence (looked up)
# T5: mouse TIGIT-Fc (mouse, UniProt P86176 29-148)
# T5 construct: extracellular domain; also called TIGIT-ECD; not shown: Fc
# T5 sequence (looked up): T2 sequence (looked up)
# B1: Ab40i4 (antibody, V domains shown)
# VH: EVQLLESGGGLVQPGGSLRLSCAASGFTFSSYSMNWVRQAPGKGLEWVAGIKSSSGNKYYADSVKGRFTISRDNSKNTLYLQMNSLRAEDTAVYYCARGPYDVWMDYWGQGTLVTVSS
# VL: not shown
# B2: Ab40i5 (antibody, V domains shown)
# VH: B1 VH
# VL: not shown
# B3: Ab40i7 (antibody, V domains shown)
# VH: B1 VH with S33G
# VL: not shown
# notes: mIgG2a of Ab40, Y52aS
# B4: Ab48i1 (antibody, V domains shown)
# VH: B1 VH with G50N, S55G, G56S, N57S, K58T, Y59S
# VL: not shown
# notes: hIgG1 of Ab48
# B5: Ab10i2 (antibody, V domains shown)
# VH: B1 VH with G50Y, S54N, N57T, Y59G, V103Y, M105L
# VL: not shown
# notes: hIgG1 of Ab10
# B6: Ab53 (Fab, V domains shown)
# VH: B1 VH with N35H, G50S, G56S, M105L
# VL: not shown
# B7: Ab53i4 (antibody, V domains shown)
# VH: B1 VH with S33G, N35H, G50S, G56S, M105L
# VL: not shown
# notes: mIgG2a of Ab53, S33G
# B8: Ab53i1 (antibody, V domains shown)
# VH: B1 VH with N35H, G50S, G56S, M105L
# VL: not shown
# notes: mIgG2a of Ab53
# B9: Ab32i1 (antibody, V domains shown)
# VH: B1 VH with N35H, G50N, K52N, S54N, S55G, K58T, Y59G, G99V
# VL: not shown
# notes: hIgG1 of Ab32
# B10: Ab15i1 (antibody, V domains shown)
# VH: B1 VH with N35H, G50S, K52W, S54N, K58T, Y59G, G99V, V103Y
# VL: not shown
# notes: hIgG1 of Ab15
# B11: Ab53i6 (antibody, V domains shown)
# VH: B1 VH with S33G, N35H, G50S, S53Y, G56S, M105L
# VL: not shown
# B12: Ab28i1 (antibody, V domains shown)
# VH: B1 VH with N35H, G50N, K52N, S54N, S55G, K58T, Y59G, G99V
# VL: not shown
# notes: hIgG1 of Ab28
# B13: Ab22i1 (antibody, V domains shown)
# VH: B1 VH with N35H, G50S, S55G, N57S, G99V, V103Y
# VL: not shown
# notes: hIgG1 of Ab22
# B14: Ab40i6 (antibody, V domains shown)
# VH: B1 VH with S33G
# VL: not shown
# notes: hIgG1 of Ab40, Y52aS
# B15: Ab48i2 (antibody, V domains shown)
# VH: B1 VH with G50N, S55G, G56S, N57S, K58T, Y59S
# VL: not shown
# notes: mIgG2a of Ab48
# B16: Ab28i2 (antibody, V domains shown)
# VH: B1 VH with N35H, G50N, K52N, S54N, S55G, K58T, Y59G, G99V
# VL: not shown
# notes: mIgG2a of Ab28
# B17: Ab15i2 (antibody, V domains shown)
# VH: B1 VH with N35H, G50S, K52W, S54N, K58T, Y59G, G99V, V103Y
# VL: not shown
# notes: mIgG2a of Ab15
# B18: Ab22i2 (antibody, V domains shown)
# VH: B1 VH with N35H, G50S, S55G, N57S, G99V, V103Y
# VL: not shown
# notes: mIgG2a of Ab22
# B19: Ab40i3 (antibody, V domains shown)
# VH: B1 VH with S53Y
# VL: not shown
# notes: mIgG2a of Ab40, G33S
# B20: Ab53i2 (antibody, V domains shown)
# VH: B1 VH with N35H, G50S, G56S, M105L
# VL: not shown
# notes: hIgG1 of Ab53
# B21: Ab53i3 (antibody, V domains shown)
# VH: B1 VH with S33G, N35H, G50S, G56S, M105L
# VL: not shown
# notes: hIgG1 of Ab53, S33G
# B22: Ab1i10 (antibody, V domains shown)
# VH: EVQLLESGGGLVQPGGSLRLSCAASGFTFSSYAMHWVRQAPGKGLEWVSGISSNGGSTSYADSVKGRFTISRDNSKNTLYLQMNSLRAEDTAVYYCARVPYSAWIDYWGQGTLVTVSS
# VL: not shown
# notes: mIgG2a of Ab1, V99A
# B23: Ab48 (Fab, V domains shown)
# VH: B1 VH with G50N, S55G, G56S, N57S, K58T, Y59S
# VL: not shown
# B24: Ab16i2 (antibody, V domains shown)
# VH: B22 VH with A33S, S49A, G50A, S52K, N54S, G56S, S102D, A103Y, I105L
# VL: not shown
# Target: T1, human TIGIT fused to a beta …
# Experiment: cell-based or functional assay
Binder,"YTS_hTIGI/hGrbs_EFC_Agonism, 221_WT","YTS_hTIGI/hGrbs_EFC_Antagonism, 221_hPVR/ICAM"
B1,0.0007 µM,1.63 µM
B2,0.0358 µM,0.238 µM
B3,0.0156 µM,0.0163 µM
B4,,0.0286 µM
B5,,0.39 µM
B6,,0.0303 µM
B7,0.0185 µM,0.45 µM
B8,,0.0259 µM
B9,,0.069 µM
B10,> 1 µM,> 1 µM
B11,0.0077 µM,0.0363 µM
B12,,0.0758 µM
B13,,0.16 µM
B14,0.0014 µM,0.276 µM
B15,,0.0068 µM
B16,,0.26 µM
B17,> 1 µM,0.275 µM
B18,> 1 µM,> 1 µM
B19,0.08 µM,0.0098 µM
B20,,0.0675 µM
B21,0.0042 µM,> 1 µM

# Target: T2, His-tagged recombinant Mouse TIGIT
# Experiment: ELISA
# Procedure: (§1) Binding affinities for antigen binding to anti-TIGIT monoclonal antibodies were determined by ELISA. […] Antibodies to be tested were diluted to 1 μM in PBS buffer containing 1% BSA and diluted 3-fold in a 10-point curve. […] Detection of the secondary antibody was determined using streptavidin-HRP and TMB reagent. All assays were performed at room temperature. Curve-fitting software was used to determine the EC₅₀ for each antibody.
row,Binder,EC50
1,B22,15.1 nM
2,B1,2.5 nM
3,B2,2.4 nM
4,B3,7.6 nM
5,B4,0.2 nM
6,B5,0.1 nM
7,B6,7.6 nM
8,B7,4.6 nM
9,B8,0.4 nM
10,B9,2.5 nM
11,B10,2.3 nM
12,B23,41.8 nM
13,B11,32.3 nM
14,B12,2.7 nM
15,B13,0.3 nM
16,B14,37 nM
17,B15,0.2 nM
18,B16,2.5 nM
19,B17,2.7 nM
20,B18,0.2 nM
21,B24,0.5 nM
22,B19,41 nM
23,B20,0.2 nM
24,B21,6.3 nM

# Target: T3, His-tagged recombinant Human TIGIT
# Experiment: ELISA
# Procedure: as §1
row,Binder,EC50
1,B22,3.9 nM
2,B1,0.3 nM
3,B2,0.2 nM
4,B3,0.2 nM
5,B4,0.2 nM
6,B5,0.3 nM
7,B6,4.3 nM
8,B7,1.1 nM
9,B8,0.3 nM
10,B9,0.4 nM
11,B10,4.8 nM
12,B23,13.8 nM
13,B11,0.2 nM
14,B12,0.4 nM
15,B13,0.7 nM
16,B14,0.3 nM
17,B15,0.2 nM
18,B16,0.6 nM
19,B17,21.6 nM
20,B18,1.8 nM
21,B24,6.4 nM
22,B19,0.2 nM
23,B20,0.1 nM
24,B21,0.8 nM

# Target: T4, biotinylated human TIGIT
# Experiment: comp. ELISA vs PVR
# Procedure: (§2) Antibodies were serially diluted in a 10-point curve starting at 1 μM in 3-fold steps. […] Units are in microM.
row,Binder,IC50
1,B22,5.8 nM
2,B1,3 nM
3,B2,4.2 nM
4,B3,3 nM
5,B4,1.9 nM
6,B5,8.5 nM
7,B6,9 nM
8,B7,6.7 nM
9,B8,1.6 nM
10,B9,1.1 nM
11,B10,2.2 nM
12,B23,111 nM
13,B11,1.7 nM
14,B12,1.2 nM
15,B13,1.5 nM
16,B14,2.7 nM
17,B15,1.6 nM
18,B16,2 nM
19,B17,10.9 nM
20,B18,38.3 nM
21,B24,84.6 nM
22,B19,3.7 nM
23,B20,0.6 nM
24,B21,8.3 nM

# Target: T5, mouse TIGIT-Fc
# Experiment: comp. ELISA vs PVR
# Procedure: as §2
row,Binder,IC50
1,B22,488 nM
2,B1,11.1 nM
3,B2,16.9 nM
4,B3,121 nM
5,B4,1.5 nM
6,B5,1.1 nM
7,B6,35.3 nM
8,B7,48.2 nM
9,B8,4.2 nM
10,B9,1.4 nM
11,B10,1.2 nM
12,B23,64.7 nM
13,B11,> 1000 nM
14,B12,1.3 nM
15,B13,0.5 nM
16,B14,78.8 nM
17,B15,1.9 nM
18,B16,1.5 nM
19,B17,1.6 nM
20,B18,2.6 nM
21,B24,4.1 nM
22,B19,> 1000 nM
23,B20,1.5 nM
24,B21,18.5 nM

# From US20200339678A1 (RIGEL PHARMACEUTICALS, published 2020)
